Measured values from paper doi:10.1101/2021.11.25.470006 (bioRxiv, 2021).

T1: Smc6 (Walker B mutant E1048Q) (S. cerevisiae, UniProt Q12749 1-1114, E1048Q, BS3-crosslinked within the holo-complex)
T1 sequence: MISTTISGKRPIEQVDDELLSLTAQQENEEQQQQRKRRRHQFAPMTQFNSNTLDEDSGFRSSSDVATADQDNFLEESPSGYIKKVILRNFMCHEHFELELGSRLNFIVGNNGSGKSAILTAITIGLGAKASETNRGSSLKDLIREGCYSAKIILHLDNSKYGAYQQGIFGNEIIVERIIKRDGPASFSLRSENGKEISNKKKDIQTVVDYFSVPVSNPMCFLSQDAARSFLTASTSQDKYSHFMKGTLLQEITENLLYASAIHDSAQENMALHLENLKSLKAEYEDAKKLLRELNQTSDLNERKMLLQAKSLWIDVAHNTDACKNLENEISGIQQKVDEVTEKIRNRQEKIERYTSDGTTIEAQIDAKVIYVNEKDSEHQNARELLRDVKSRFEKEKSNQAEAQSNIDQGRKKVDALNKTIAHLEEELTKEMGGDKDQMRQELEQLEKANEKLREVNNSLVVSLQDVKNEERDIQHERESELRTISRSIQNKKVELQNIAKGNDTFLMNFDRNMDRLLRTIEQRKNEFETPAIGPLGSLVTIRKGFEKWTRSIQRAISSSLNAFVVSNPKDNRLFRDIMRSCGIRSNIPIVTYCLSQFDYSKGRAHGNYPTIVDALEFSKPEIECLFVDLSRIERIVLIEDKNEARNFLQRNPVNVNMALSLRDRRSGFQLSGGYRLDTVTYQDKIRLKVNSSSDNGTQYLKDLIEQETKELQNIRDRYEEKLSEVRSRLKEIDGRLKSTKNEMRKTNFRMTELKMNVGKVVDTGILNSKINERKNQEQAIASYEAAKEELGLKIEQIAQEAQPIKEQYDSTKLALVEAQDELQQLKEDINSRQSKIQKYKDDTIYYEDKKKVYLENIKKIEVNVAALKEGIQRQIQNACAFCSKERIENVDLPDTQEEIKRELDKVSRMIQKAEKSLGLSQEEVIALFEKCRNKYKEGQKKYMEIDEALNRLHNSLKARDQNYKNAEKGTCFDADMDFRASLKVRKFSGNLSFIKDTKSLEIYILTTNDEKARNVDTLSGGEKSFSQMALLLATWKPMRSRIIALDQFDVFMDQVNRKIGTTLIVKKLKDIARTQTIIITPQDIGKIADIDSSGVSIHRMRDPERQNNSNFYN

B1: Nse4 (HALO-tagged) (natural protein, S. cerevisiae)
chain: MSSTVISRKRRNSTVTEPDSSGETRKQKKSRSDEKSSSSKDGDPQLEFKVLQGYRDLESEMHKGRAQVTRTGDIGVAMDNLNAVDSLFNKVIGIKNNGLFAHDARAMVSISELAQISVRNLKFDDSRSMVNLENIVNSLKRYMLKEHFKLNNIAENRNDLTLAADEQSAADQQEESDGDIDRTPDDNHTDKATSSFKATSMRHSYLQQFSHYNEFSQFNWFRIGALYNTISKNAPITDHLMGPLSIEKKPRVLTQRRRNNDQVGEKITAEKITQHSLNSTQQETTPEQVKKCFKKLSKKLGPEGSINLFKFIIDPNSFSRSIENLFYTSFLIKEGKLLMEHDEEGLPTIKIKQSISHTDSRSKEIERQRRRAAHQNHIIFQMDMPTWRKLIKKYNITSPFLD
modifications: BS3-crosslinked within the holo-complex
B2: Nse1 (natural protein, S. cerevisiae)
chain: MEVHEEQVSAPVTGDATAKYLLQYILSARGICHENALILALMRLETDASTLNTEWSIQQWVDKLNDYINAINVKLNLLGYKIIRINHGIGRNAVTLKAKQNFESFEDNTAIRAHNNDYAVLQSIVLPESNRFFVYVNLASTEETKLATRFNQNEIEFMKWAIEQFMISGETIVEGPALETSIIVKEVNRILVAATGDSNLAKWRKFSTFTVGSTNLFQFQELTATDIEDLLLRLCELKWFYRTQEGKFGIDLRCIAELEEYLTSMYNLNTCQNCHKLAIQGVRCGNESCREENEETGENSLSQIWHVDCFKHYITHVSKNCDRCGSSLITEGVYVI
modifications: BS3-crosslinked within the holo-complex
B3: Nse2 (Mms21) (natural protein, S. cerevisiae)
chain: ALNDNPIPKSVPLHPKSGKYFHNLHARDLSNIYQQCYKQIDETINQLVDSTSPSTIGIEEQVADITSTYKLLSTYESESNSFDEHIKDLKKNFKQSSDACPQIDLSTWDKYRTGELTAPKLSELYLNMPTPEPATMVNNTDTLKILKVLPYIWNDPTCVIPDLQNPADEDDLQIEGGKIELTCPITCKPYEAPLISRKCNHVFDRDGIQNYLQGYTTRDCPQAACSQVVSMRDFVRDPIMELRCKIAKMKESQEQDKRSSQAIDVL
modifications: BS3-crosslinked within the holo-complex
B4: Smc5 (Walker B mutant E1015Q) (natural protein, S. cerevisiae)
chain: MTSLIDLGRYVERTHHGEDTEPRSKRVKIAKPDLSSFQPGSIIKIRLQDFVTYTLTEFNLSPSLNMIIGPNGSGKSTFVCAVCLGLAGKPEYIGRSKKVEDFIKNGQDVSKIEITLKNSPNVTDIEYIDARDETIKITRIITRSKRRSDYLINDYQVSESVVKTLVAQLNIQLDNLCQFLSQERVEEFARLKSVKLLVETIRSIDASLLDVLDELRELQGNEQSLQKDLDFKKAKIVHLRQESDKLRKSVESLRDFQNKKGEIELHSQLLPYVKVKDHKEKLNIYKEEYERAKANLRAILKDKKPFANTKKTLENQVEELTEKCSLKTDEFLKAKEKINEIFEKLNTIRDEVIKKKNQNEYYRGRTKKLQATIISTKEDFLRSQEILAQTHLPEKSVFEDIDIKRKEIINKEGEIRDLISEIDAKANAINHEMRSIQRQAESKTKSLTTTDKIGILNQDQDLKEVRDAVLMVREHPEMKDKILEPPIMTVSAINAQFAAYLAQCVDYNTSKALTVVDSDSYKLFANPILDKFKVNLRELSSADTTPPVPAETVRDLGFEGYLSDFITGDKRVMKMLCQTSKIHTIPVSRRELTPAQIKKLITPRPNGKILFKRIIHGNRLVDIKQSAYGSKQVFPTDVSIKQTNFYQGSIMSNEQKIRIENEIINLKNEYNDRKSTLDALSNQKSGYRHELSELASKNDDINREAHQLNEIRKKYTMRKSTIETLREKLDQLKREARKDVSQKIKDIDDQIQQLLLKQRHLLSKMASSMKSLKNCQKELISTQILQFEAQNMDVSMNDVIGFFNEREADLKSQYEDKKKFVKEMRDTPEFQSWMREIRSYDQDTKEKLNKVAEKYEEEGNFNLSFVQDVLDKLESEIAMVNHDESAVTILDQVTAELRELEHTVPQQSKDLETIKAKLKEDHAVLEPKLDDIVSKISARFARLFNNVGSAGAVRLEKPKDYAEWKIEIMVKFRDNAPLKKLDSHTQSGGERAVSTVLYMIALQEFTSAPFRVVDQINQGMDSRNERIVHKAMVENACAENTSQYFLITPKLLTGLHYHEKMRIHCVMAGSWIPNPSEDPKMIHFGETSNYSFD
modifications: BS3-crosslinked within the holo-complex

Assays:
Assay in all cases: cryo-EM structure
[1] = biological target: T1, Smc6 (Walker B mutant E1048Q)
[2] = biological target: B4
Nse4 (HALO-tagged) = biological target: B1

binding result [1] | binding result [2] | binding result (Nse4 (HALO-tagged)) | Binder
binds | binds |  | B1
 | binds | binds | B2
binds | binds |  | B3
binds |  |  | B4
